Measurements reported in PMC7028737.

Biological target: Skp1-FBW7 complex (UniProt Q969H0)
Assay: ITC; MicroCal VP-ITC, 30 °C, 50 mM phosphate buffer pH 7.4; cell: 15 μM Skp1-FBW7 complex (1400 μL); syringe: 300 μM FIR∆exon2, 25 injections of 10 μL

Sequence of UniProt Q969H0 (Q969H0 whole entry, chain 1 of 2): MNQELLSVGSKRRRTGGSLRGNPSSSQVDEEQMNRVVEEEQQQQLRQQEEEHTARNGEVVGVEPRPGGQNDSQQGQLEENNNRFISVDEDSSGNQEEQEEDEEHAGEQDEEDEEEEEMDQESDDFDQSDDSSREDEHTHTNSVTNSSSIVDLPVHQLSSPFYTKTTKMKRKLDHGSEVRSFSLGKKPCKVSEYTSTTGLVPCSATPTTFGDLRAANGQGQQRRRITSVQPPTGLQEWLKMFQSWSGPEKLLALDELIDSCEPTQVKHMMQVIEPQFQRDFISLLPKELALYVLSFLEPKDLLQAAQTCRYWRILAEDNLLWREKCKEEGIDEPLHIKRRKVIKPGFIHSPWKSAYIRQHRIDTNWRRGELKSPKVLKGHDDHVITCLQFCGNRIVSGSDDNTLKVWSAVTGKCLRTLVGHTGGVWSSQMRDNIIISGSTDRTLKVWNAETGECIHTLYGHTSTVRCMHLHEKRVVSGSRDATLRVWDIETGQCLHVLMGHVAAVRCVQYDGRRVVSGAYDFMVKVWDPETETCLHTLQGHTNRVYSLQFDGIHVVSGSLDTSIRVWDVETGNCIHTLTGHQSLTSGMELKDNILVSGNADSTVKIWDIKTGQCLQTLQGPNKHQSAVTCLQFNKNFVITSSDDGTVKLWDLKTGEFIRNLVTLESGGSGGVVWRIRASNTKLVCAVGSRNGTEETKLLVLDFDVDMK
Sequence of UniProt Q969H0 (P63208 whole entry, chain 2 of 2, further chain): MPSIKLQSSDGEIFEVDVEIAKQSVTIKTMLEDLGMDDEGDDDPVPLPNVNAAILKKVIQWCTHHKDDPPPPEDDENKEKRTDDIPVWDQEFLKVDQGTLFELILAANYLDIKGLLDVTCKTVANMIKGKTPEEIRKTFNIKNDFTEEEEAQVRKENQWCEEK

FIR∆exon2 (recombinant, Nus-tag cleaved) (natural protein)
Ka: > 108 M⁻¹
